# Laboratory results from publication PMC12339742.
# B1: PduP encapsulation peptide with its native linker fused to the N-terminus of mNeonGreen [Salmonella enterica] / itself (parent)
# chain: MNTSELETLIRTILSEQLTTPAQTPVQPQGKGIFQS
# Assays:
# itself [1] = variants of: B1; experiment: turbidity measurement (self-assembly / condensation), NaCl titration; conditions: with itself; value read at the lowest NaCl point (est. ~12-15 mM NaCl); parent: 0.45; read off a plot
# itself [2] = variants of: B1; experiment: turbidity measurement (self-assembly / condensation), protein concentration titration; conditions: with itself; value read at the third-highest protein concentration point (est. ~45 µM); parent: 0.45; read off a plot
Variant,response (itself [1]),response (itself [2])
MNTSELDTLIRTILSEQLTTPAQTPVQPQGKGIFQS,0.37,0.21
MNTSELETLIATILSEQLTTPAQTPVQPQGKGIFQS,0.26,0.21
MNTSELETLIKTILSEQLTTPAQTPVQPQGKGIFQS,0.46,0.39
MNTSELRTLIETILSEQLTTPAQTPVQPQGKGIFQS,0.51,0.5
MNTSELETLSRTILSEQLTTPAQTPVQPQGKGIFQS,0.17,–
